Results: the supplement of paper PMC11316812
± gives the standard deviation of the averaged measurements.

How the values were obtained:
[1] = tested on: MCF7; experiment: percentage of EdU-negative (G0-arrested) nuclei per well, 72 h; higher = more G0 arrest; details: reference: sequence is the full UniProt precursor, the tested protein was the secreted form or ectodomain
[2] = tested on: hTERT-HMEC; experiment: as above; details: reference: sequence is the full UniProt precursor, the tested protein was the secreted form or ectodomain
[3] = protein concentration 0.03125 µM
[4] = protein concentration 0.3125 µM
[5] = protein concentration 0.0225 µM
[6] = protein concentration 0.0122857 µM
[7] = protein concentration 0.122857 µM
[8] = protein concentration 0.0225714 µM
[9] = protein concentration 0.225714 µM
[10] = protein concentration 0.0284475 µM
[11] = protein concentration 0.284475 µM
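Also: secreted proteins added to cultured cells, EdU pulse at the end, nuclei found by Hoechst imaging, EdU status from nuclear versus surrounding ring intensity ratio, PBS as neutral control.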

MPPSGPRGTLLLLPLLLLLLLRAVLAVPLERGAPNKEETPATESPDTGLYYHRYLQEVIDVLETDGHFREKLQAANAEDIKSGKLSRELDFVSHHVRTKLDELKRQEVSRLRMLLKAKMDAEQDPNVQVDHLNLLKQFEHLDPQNQHTFEARDLELLIQTATRDLAQYDAAHHEEFKRYEMLKEHERRRYLESLGEEQRKEAERKLEEQQRRHREHPKVNVPGSQAQLKEVWEELDGLDPNRFNPKTFFILHDINSDGVLDEQELEALFTKELEKVYDPKNEEDDMREMEEERLRMREHVMKNVDTNQDRLVTLEEFLASTQRKEFGDTGEGWETVEMHPAYTEEELRRFEEELAAREAELNAKAQRLSQETEALGRSQGRLEAQKRELQQAVLHMEQRKQQQQQQQGHKAPAAHPEGQLKFHPDTDDVPVPAPAGDQKEVDTSEKKLLERLPEVEVPQHL
percentage of EdU-negative [1, 3]: 24.1 ± 0.73%
percentage of EdU-negative [1, 4]: 26.9 ± 1.6%
percentage of EdU-negative [2, 3]: 4.94 ± 0.37%
percentage of EdU-negative [2, 4]: 7.16 ± 0.53%

MPRAPAPLYACLLGLCALLPRLAGLNICTSGSATSCEECLLIHPKCAWCSKEDFGSPRSITSRCDLRANLVKNGCGGEIESPASSFHVLRSLPLSSKGSGSAGWDVIQMTPQEIAVNLRPGDKTTFQLQVRQVEDYPVDLYYLMDLSLSMKDDLDNIRSLGTKLAEEMRKLTSNFRLGFGSFVDKDISPFSYTAPRYQTNPCIGYKLFPNCVPSFGFRHLLPLTDRVDSFNEEVRKQRVSRNRDAPEGGFDAVLQAAVCKEKIGWRKDALHLLVFTTDDVPHIALDGKLGGLVQPHDGQCHLNEANEYTASNQMDYPSLALLGEKLAENNINLIFAVTKNHYMLYKNFTALIPGTTVEILDGDSKNIIQLIINAYNSIRSKVELSVWDQPEDLNLFFTATCQDGVSYPGQRKCEGLKIGDTASFEVSLEARSCPSRHTEHVFALRPVGFRDSLEVGVTYNCTCGCSVGLEPNSARCNGSGTYVCGLCECSPGYLGTRCECQDGENQSVYQNLCREAEGKPLCSGRGDCSCNQCSCFESEFGKIYGPFCECDNFSCARNKGVLCSGHGECHCGECKCHAGYIGDNCNCSTDISTCRGRDGQICSERGHCLCGQCQCTEPGAFGEMCEKCPTCPDACSTKRDCVECLLLHSGKPDNQTCHSLCRDEVITWVDTIVKDDQEAVLCFYKTAKDCVMMFTYVELPSGKSNLTVLREPECGNTPNAMTILLAVVGSILLVGLALLAIWKLLVTIHDRREFAKFQSERSRARYEMASNPLYRKPISTHTVDFTFNKFNKSYNGTVD
percentage of EdU-negative [1, 5]: 25.2 ± 1.3%
percentage of EdU-negative ([1]; protein concentration 0.225 µM): 26 ± 1.5%
percentage of EdU-negative [2, 5]: 5.13 ± 0.59%
percentage of EdU-negative ([2]; protein concentration 0.225 µM): 7.6 ± 1.1%

MPRCRWLSLILLTIPLALVARKDPKKNETGVLRKLKPVNASNANVKQCLWFAMQEYNKESEDKYVFLVVKTLQAQLQVTNLLEYLIDVEIARSDCRKPLSTNEICAIQENSKLKRKLSCSFLVGALPWNGEFTVMEKKCEDA
percentage of EdU-negative [1, 5]: 27.2 ± 1.2%
percentage of EdU-negative ([1]; protein concentration 0.225 µM): 25.6 ± 1.6%
percentage of EdU-negative [2, 5]: 5.21 ± 1.2%
percentage of EdU-negative ([2]; protein concentration 0.225 µM): 4.56 ± 0.34%

MPRGFTWLRYLGIFLGVALGNEPLEMWPLTQNEECTVTGFLRDKLQYRSRLQYMKHYFPINYKISVPYEGVFRIANVTRLQRAQVSERELRYLWVLVSLSATESVQDVLLEGHPSWKYLQEVETLLLNVQQGLTDVEVSPKVESVLSLLNAPGPNLKLVRPKALLDNCFRVMELLYCSCCKQSSVLNWQDCEVPSPQSCSPEPSLQYAATQLYPPPPWSPSSPPHSTGSVRPVRAQGEGLLP [Q6ZMJ4]
percentage of EdU-negative [1, 6]: 25.6 ± 1.6%
percentage of EdU-negative [1, 7]: 27.7 ± 1.3%
percentage of EdU-negative [2, 6]: 4.75 ± 0.29%
percentage of EdU-negative [2, 7]: 18.4 ± 1.3%

MPRLSLLLPLLLLLLLPLLPPLSPSLGIRDVGGRRPKCGPCRPEGCPAPAPCPAPGISALDECGCCARCLGAEGASCGGRAGGRCGPGLVCASQAAGAAPEGTGLCVCAQRGTVCGSDGRSYPSVCALRLRARHTPRAHPGHLHKARDGPCEFAPVVVVPPRSVHNVTGAQVGLSCEVRAVPTPVITWRKVTKSPEGTQALEELPGDHVNIAVQVRGGPSDHEATAWILINPLRKEDEGVYQCHAANMVGEAESHSTVTVLDLSKYRSFHFPAPDDRM [Q8WX77]
percentage of EdU-negative [1, 8]: 27.4 ± 0.89%
percentage of EdU-negative [1, 9]: 29.2 ± 0.86%
percentage of EdU-negative [2, 8]: 4.78 ± 0.086%
percentage of EdU-negative [2, 9]: 4.6 ± 1.4%

MPRPAPARRLPGLLLLLWPLLLLPSAAPDPVARPGFRRLETRGPGGSPGRRPSPAAPDGAPASGTSEPGRARGAGVCKSRPLDLVFIIDSSRSVRPLEFTKVKTFVSRIIDTLDIGPADTRVAVVNYASTVKIEFQLQAYTDKQSLKQAVGRITPLSTGTMSGLAIQTAMDEAFTVEAGAREPSSNIPKVAIIVTDGRPQDQVNEVAARAQASGIELYAVGVDRADMASLKMMASEPLEEHVFYVETYGVIEKLSSRFQETFCALDPCVLGTHQCQHVCISDGEGKHHCECSQGYTLNADKKTCSALDRCALNTHGCEHICVNDRSGSYHCECYEGYTLNEDRKTCSAQDKCALGTHGCQHICVNDRTGSHHCECYEGYTLNADKKTCSVRDKCALGSHGCQHICVSDGAASYHCDCYPGYTLNEDKKTCSATEEARRLVSTEDACGCEATLAFQDKVSSYLQRLNTKLDDILEKLKINEYGQIHR
percentage of EdU-negative [1, 5]: 22.2 ± 2.4%
percentage of EdU-negative ([1]; protein concentration 0.225 µM): 26.2 ± 2%
percentage of EdU-negative [2, 5]: 4.9 ± 0.095%
percentage of EdU-negative ([2]; protein concentration 0.225 µM): 5.61 ± 0.67%

MPRQLSAAAALFASLAVILHDGSQMRAKAFPETRDYSQPTAAATVQDIKKPVQQPAKQAPHQTLAARFMDGHITFQTAATVKIPTTTPATTKNTATTSPITYTLVTTQATPNNSHTAPPVTEVTVGPSLAPYSLPPTITPPAHTTGTSSSTVSHTTGNTTQPSNQTTLPATLSIALHKSTTGQKPVQPTHAPGTTAAAHNTTRTAAPASTVPGPTLAPQPSSVKTGIYQVLNGSRLCIKAEMGIQLIVQDKESVFSPRRYFNIDPNATQASGNCGTRKSNLLLNFQGGFVNLTFTKDEESYYISEVGAYLTVSDPETIYQGIKHAVVMFQTAVGHSFKCVSEQSLQLSAHLQVKTTDVQLQAFDFEDDHFGNVDECSSDYTIVLPVIGAIVVGLCLMGMGVYKIRLRCQSSGYQRI [Q9UQV4]
percentage of EdU-negative [1, 10]: 25.5 ± 0.37%
percentage of EdU-negative [1, 11]: 26.2 ± 0.31%
percentage of EdU-negative [2, 10]: 5.03 ± 0.35%
percentage of EdU-negative [2, 11]: 5.04 ± 0.52%
